Laboratory results reported in patent US20230391879A1 (INTERVET, published 2023).

B1: caninized 44E2VH2VK1 (antibody, V domains shown)
VH: EVQLVESGGDLVKPEGSLRLSCVVSGFSLTSNGVSWVRQAPGKGLQWIAAISSGGSTYYNSVLKSRLTISRDNAKNTLYLQMNSLRTEDTAVYYCARRLSGYNYVPFAYWGQGTLVTVSS
VL: EIVMTQSPASLSLSQEEKVTITCKASQNIYKHLAWYQQKPGQAPKLLIYNANSLQTGVPSRFSGSGSGTDFSFTISSLEPEDVAVYYCQQYYSGDTFGAGTKVELKR
notes: Caninized antibody, canine IgG-Bm heavy chain and canine kappa light chain; also called c44E2; c44E2VH2-cIgGBm + c44E2VK1-cCK
B2: 28F12 (antibody, V domains shown)
VH: EVQLVESDGGLAQPGRSLKLSCAASGFTFSDYYMAWVRQAPTKGLEWVATISYDGSSTYYRDSVRGRFTISRDNAKSTLYLQMDSLRSEDTATYYCARGPLTDWAPNWFAYWGQGTLVTVSS
VL: DIQMTQSPASLSASLGETVTIQCQTSEDIYSGLAWYQQKPGKSPQFLIYGASRLEDGVPSRFSGSGSGTQYSLKISSMQTEDEGVYFCQQGLKYPNTFGAGTKLELK
notes: Rat monoclonal antibody from a hybridoma; also called rat mAb 28F12
B3: 47F3 (antibody, V domains shown)
VH: EVQLVESGGGLVQPGRSMKLSCVASGFTFSNYYMAWVRQAPTKGLEWVASISTGGGNTYYRDSVKGRFTISRDNAKSTLYLQMDSLRSEDTATYYCARHGTLYFDYWGQGVMVTVS
VL: QFTLTQPKSVSGSLRSTITIPCERSSGDIGNTYVSWYQQHLGRPPINVIYADDQRPSEVSDRFSGSIDSSSNSASLTITNLQMDDEADYFCQSYDSNIDGPVFGGGTKLTVL
notes: Rat monoclonal antibody from a hybridoma; also called rat mAb 47F3
B4: 49D3 (antibody, V domains shown)
VH: EVQLVESGGGLVQPGRSMKLSCAASGFTFSNYYMAWVRQAPTKGLEWVASISTGGGNTYYRDSVKGRFTISRDNAKSTLYLQMDSLRSEDTATYYCARHGTLYFDYWGQGVMVTVSS
VL: QFTLTQPKSVSGSLRSTITIPCERSSGDIGDSYVSWYQQHLGRPPINVIYADDQRPSEVSDRFSGSIDSSSNSASLTITNLQMDDEADYFCQSYDSNIDGPVFGGGTKLTVL
notes: Rat monoclonal antibody from a hybridoma; also called rat mAb 49D3
B5: 51G4 (antibody, V domains shown)
VH: EVQLVESGGGLVQPGRSMKLSCAALGFTFSNYYMAWVRQAPTKGLEWVASISTGGGNTYYRDSVKGRFTISRDNAKNTLYLQMDSLRSEDTATYYCARHGTIAAMDYWGQGVMVTVSS
VL: QFTLTQPKSVSGSLRSTITIPCERNNGDIGDSYVSWYQQHLGRPPIIVIYADDQRPSEVSDRFSGSIDSSSNSASLTITNLQMDDEADYFCQSYDSNIDGPVFGGGTKLTVL
notes: Rat monoclonal antibody from a hybridoma; also called rat mAb 51G4
B6: 27A10 (antibody, V domains shown)
VH: EVQLVESGGGLVQPGRSMKLSCTASGFTFSNYYMAWVRQAPTKGLEWVASISTGGGNTYYRDSVKGRFTISRDNAKSTLYLQMDSLRAEDTATYYCARHTMGYFDYWGQGVMVTVSS
VL: QFTLTQPKSVSGSLRSTITIPCERSSGDIGDNYVSWYQQHLGRPPINVIYADDQRPSEVSDRFSGSIDSSSNSASLTITNLQMDDEADYFCQSYDGKIEIPVFGGGTKLTVL
notes: Rat monoclonal antibody from a hybridoma; also called rat mAb 27A10
B7: 53B3 (antibody, V domains shown)
VH: EVQLVESGGGLVQPGRSMKLSCAAFGFTFNNYYMAWVRQAPTKGLEWVASISTGGGNTFYRDSVKGRFTISRDNVKSILSLQMDSLRSEDTATYYCARHGTIAAMDYWGQGVMVTVSS
VL: QFTLTQPKSVSGSLRSTITIPCERTSGDIGDNYVSWYQQHLGRPPINVIYADDQRPSEVSDRFSGSIDSSSNSASLTITNLQMDDEADYFCQSYDSNIDGPVFGGGTKLTVL
notes: Rat monoclonal antibody from a hybridoma; also called rat mAb 53B3
B8: 10A12 (antibody, V domains shown)
VH: EVQLVESGGGLVKPGRSMKLSCAASGFTFSNYYMAWVRQAPTKGLEWVASISTGGGNTYYRDSVKGRFTISRDNAKRTLYLQMDSLRSEDTATYYCGRHGTLYFDYWGQGVMVTVSS
VL: QFTLTQPKSVSGSLRSTITIPCERSSGDIGDSYVSWYQQHLGRPPINVIYVDDQRPSEVSDRFSGSIDSSSNSASLTITDLQMDDEADYFCQSYDSNIDGPVFGGGTKLTVL
notes: Rat monoclonal antibody from a hybridoma; also called rat mAb 10A12
B9: 48B1 (antibody, V domains shown)
VH: EVQLVESGGGLVQPGRTLKLFCVASGFTFNNYWMTWIRQAPGKGLEWVASITNTGGSTYYPDSVKGRFTISRDNAKSTLYLQMNSLRSEDTATYYCTRGPDYGGHLNWFVYWGQGTLVTVSS
VL: DIVMTQSPTSMSISVGDRVTMNCKASQNVGSNVDWYQQKTGQSPKLLIYKASNRYTGVPDRFTGSGSGTDFTFTISNMQAEDLAVYYCMQSNSYPPTFGGGTKLELK
notes: Rat monoclonal antibody from a hybridoma; also called rat mAb 48B1
B10: 20B8 (antibody, V domains shown)
VH: EVQLVESGGGLVQPGRSLKLSCVASGFTFNNYWMTWIRQAPGKGLEWVASITNTGGSTYYPDSVKGRFTISRDNAKSTLYLQMNSLRSEDTATYYCTRGPTTVVGGWFAYWGQGTLVTVSS
VL: DIVMTQSPTSMSISVGDRVTMNCKASQNVGSNVDWYQQKTGQSPKLLIYRPSNRYTGVPDRFTGSGSGTDFTFTISNMQAEDLAVYYCMQSNSYPPTFGGGTKLELK
notes: Rat monoclonal antibody from a hybridoma; also called rat mAb 20B8
B11: 22B4 (antibody, V domains shown)
VH: EVQLVESGGGLVQPGRSLKLSCVASGFTFNKYWMTWIRQAPGKGLEWVASITNTGGSSYYSDSVKGRFTISRDNAKSTLYLQMNSLRSEETATYYCTRGPDYGGHLNWFAYWGQGTLVTVSS
VL: DIVMTQSPTSMSISVGDRVTMNCKASQNVGSNVDWYQEKTGQSPKLVIYKASNRYTGVPDRFTGSGSGTDFTFTISNMQAEDLAVYYCMQSNSYPPTFGGGTKLELK
notes: Rat monoclonal antibody from a hybridoma; also called rat mAb 22B4
B12: 7D7 (antibody, V domains shown)
VH: EVQLVESGGGLVQPGRSLKLSCVASGFTFNNYWMTWIRQAPGKGLEWVASITNTGGSTFYPDSVKGRFTISRDNAKSTLYLQMNSLRSEDTATYYCTRGPDYGGHLNWFAYWGQGTLVTVSS
VL: DIVMTQSPTSMSISAGDRVTMNCKASQNVGSNVDWYQQKTGQSPKLLIYKASNRYTGVPDRCTGSGSGTDFTFTISNMQAEDLAVYYCMQSNSYPPTFGGGTKLELK
notes: Rat monoclonal antibody from a hybridoma; also called rat mAb 7D7
B13: 44E2 (antibody, V domains shown)
VH: QVQLKESGPGLVQPSQTLSLTCTVSGFSLTSNGVSWVRQPPGKGLEWIAAISSGGSTYYNSVLKSRLSISRDTSKSQVFLKMNSLQTEDTAIYFCTRRLSGYNYVPFAYWGQGTLVTVSS
VL: DIQMTQSPSLLSASVGDRVTLNCKASQNIYKHLAWCQQKLGEPPNLLISNANSLQTGIPSRFSGSGSGTDFTLTISSLQPEDVATYFCQQYYSGDTFGAGTKLELK
notes: Rat monoclonal antibody from a hybridoma; also called rat mAb 44E2
B14: 4G7 (antibody, V domains shown)
VH: EVQLQQYGAELGKPGTSVKLSCKVSGYNIRSTFMHWVNQRPGKGLEWIGRIDPVNGNTIYSEKFKSKATLTADTSSNTAYMQLSQLKSDDTAIYFCAMFNYAGHSGDYWGQGVMVTVSS
VL: DIQMTQSPSSMSVSLGDTVTITCRASQDVGIYVNWFQQKPGKSPRRMIYRATNLADGVPSRFSGSRSGSDYSLTISSLESEDVADYHCLQYDEYPYTFGAGTKLELK
notes: Rat monoclonal antibody from a hybridoma; also called rat mAb 4G7
B15: caninized 28F12VH2VK3 (antibody, V domains shown)
VH: EVQLVESGGDLVKPGGSLRLSCAASGFTFSDYYMAWVRQAPGKGLQWVATISYDGSSTYYRDSVRGRFTISRDNAKNTLYLQMNSLRAEDTAMYYCARGPLTDWAPNWFAYWGQGTLVTVSS
VL: DIVMTQSPASLSLSQEEKVTITCQTSEDIYSGLAWYQQKPGQAPKLLIYGASRLEDGVPSRFSGSGSGTDFSFTISSLEPEDVAVYFCQQGLKYPNTFGAGTKVELKR
notes: Caninized antibody, canine IgG-Bm heavy chain and canine kappa light chain; also called c28F12; c28F12VH2-cIgGBm + c28F12VK3-cCK
B16: caninized 28F12VH1VK4 (antibody, V domains shown)
VH: EVQLVESGGDLVKPGGSLRLSCVASGFTFSDYYMAWVRQAPGKGLQWVATISYDGSSTYYRDSVRGRFTISRDNAKNTLYLQMNSLRAEDTAMYYCAKGPLTDWAPNWFAYWGQGTLVTVSS
VL: DIVMTQTPLSLSVSPGETASISCQTSEDIYSGLAWFRQKPGQSPQLLIYGASRLEDGVPDRFSGSGSGTDFTLRISTVEADDTGVYFCQQGLKYPNTFGAGTKVELKR
notes: Caninized antibody, canine IgG-Bm heavy chain and canine kappa light chain; also called c28F12VH1-cIgGBm + c28F12VK4-cCK
B17: caninized 28F12VH1VK3 (antibody, V domains shown)
VH: EVQLVESGGDLVKPGGSLRLSCVASGFTFSDYYMAWVRQAPGKGLQWVATISYDGSSTYYRDSVRGRFTISRDNAKNTLYLQMNSLRAEDTAMYYCAKGPLTDWAPNWFAYWGQGTLVTVSS
VL: DIVMTQSPASLSLSQEEKVTITCQTSEDIYSGLAWYQQKPGQAPKLLIYGASRLEDGVPSRFSGSGSGTDFSFTISSLEPEDVAVYFCQQGLKYPNTFGAGTKVELKR
notes: Caninized antibody, canine IgG-Bm heavy chain and canine kappa light chain; also called c28F12VH1-cIgGBm + c28F12VK3-cCK
B18: caninized 28F12VH2VK2 (antibody, V domains shown)
VH: EVQLVESGGDLVKPGGSLRLSCAASGFTFSDYYMAWVRQAPGKGLQWVATISYDGSSTYYRDSVRGRFTISRDNAKNTLYLQMNSLRAEDTAMYYCARGPLTDWAPNWFAYWGQGTLVTVSS
VL: EIVMTQSPASLSLSQEEKVTITCQTSEDIYSGLAWYQQKPGQAPKLLIYGASRLEDGVPSRFSGSGSGTDFSFTISSLEPEDVAVYYCQQGLKYPNTFGAGTKVELKR
notes: Caninized antibody, canine IgG-Bm heavy chain and canine kappa light chain; also called caninized 28F12VH2K2; c28F12
B19: caninized 28F12VH2VK4 (antibody, V domains shown)
VH: EVQLVESGGDLVKPGGSLRLSCAASGFTFSDYYMAWVRQAPGKGLQWVATISYDGSSTYYRDSVRGRFTISRDNAKNTLYLQMNSLRAEDTAMYYCARGPLTDWAPNWFAYWGQGTLVTVSS
VL: DIVMTQTPLSLSVSPGETASISCQTSEDIYSGLAWFRQKPGQSPQLLIYGASRLEDGVPDRFSGSGSGTDFTLRISTVEADDTGVYFCQQGLKYPNTFGAGTKVELKR
notes: Caninized antibody, canine IgG-Bm heavy chain and canine kappa light chain; also called c28F12VH2-cIgGBm + c28F12VK4-cCK

Target: T1, Canine IL-31RA ECD-10His (canine)
T1 construct: made in HEK-293 or CHO cells and coated on the ELISA plates; also called canine IL-31 receptor alpha extracellular domain HIS-tagged protein; cIL-31RA
T1 chain: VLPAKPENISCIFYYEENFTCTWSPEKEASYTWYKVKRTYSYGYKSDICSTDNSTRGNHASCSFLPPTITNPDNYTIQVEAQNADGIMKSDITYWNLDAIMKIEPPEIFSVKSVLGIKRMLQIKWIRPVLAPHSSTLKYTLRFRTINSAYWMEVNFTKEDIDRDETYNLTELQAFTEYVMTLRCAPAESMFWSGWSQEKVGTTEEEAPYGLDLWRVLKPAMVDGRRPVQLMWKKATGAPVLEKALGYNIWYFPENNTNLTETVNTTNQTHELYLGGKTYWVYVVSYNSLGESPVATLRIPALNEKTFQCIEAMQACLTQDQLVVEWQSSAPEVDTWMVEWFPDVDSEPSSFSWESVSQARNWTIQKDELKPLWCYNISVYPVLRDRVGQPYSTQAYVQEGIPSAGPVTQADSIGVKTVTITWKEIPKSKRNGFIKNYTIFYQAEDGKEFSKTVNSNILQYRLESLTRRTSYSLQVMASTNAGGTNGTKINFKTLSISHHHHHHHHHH
Test: ELISA (FIG. 6C)

Binding result, binds:
B1

Target: T1, Canine IL-31RA ECD-10His
Test: ELISA, IL-31RA coated

Binding result, binds:
B2
B3
B4
B5
B6
B7
B8
B9
B10
B11
B12
B13
B14

Target: T1, Canine IL-31RA ECD-10His
Test: ELISA (FIG. 6B)

Binding result, binds:
B15
B16
B17
B18
B19
